How the values were obtained:
Assay in all cases: ITC
[1] = molecular target: WW1–WW2 tandem module of WWOX (residues 16–91) (human) (UniProt Q9NZC7)
[2] = molecular target: WW2W domain of WWOX (WW2 domain, residues 57–91, with the Y85W substitution) (human) (UniProt Q9NZC7)
[3] = molecular target: WW1 domain of WWOX (residues 16–50) (human) (UniProt Q9NZC7)
WW1 domain of WWOX (residues 16–50) (human), sequence (Q9NZC7 16-50): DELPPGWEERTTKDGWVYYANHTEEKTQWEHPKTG

WW2W domain of WWOX (WW2 domain, residues 57–91, with the Y85W substitution) (human), sequence (Q9NZC7 57-91 Y85W): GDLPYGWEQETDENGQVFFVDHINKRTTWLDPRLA
WW1–WW2 tandem module of WWOX (residues 16–91) (human), sequence (Q9NZC7 16-91): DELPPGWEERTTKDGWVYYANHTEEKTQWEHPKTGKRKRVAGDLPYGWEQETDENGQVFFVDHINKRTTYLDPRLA

Row | Substance | Kd [1] [µM] | Kd [2] [µM] | dH [2] [kcal/mol] | Kd [3] [µM] | dH [3] [kcal/mol]
1 | ErbB4_PY3 peptide (12-mer spanning the PY3 PPXY motif of the ICD of ErbB4) | 68 | 54 | -4.15 | 144 | -6.21
2 | PY3_A+4 (ErbB4_PY3 peptide with alanine at position +4) |  |  |  | 275 | -4.02
3 | PY3_A+2 (ErbB4_PY3 peptide with alanine at position +2) |  |  |  | 287 | -3.63
4 | PY3_A+5 (ErbB4_PY3 peptide with alanine at position +5) |  |  |  | 157 | -11.4

Further substances by falling Kd [3], results first:

Row | Kd [1] [µM] | Kd [2] [µM] | dH [2] [kcal/mol] | Kd [3] [µM] | dH [3] [kcal/mol] | Substance
5 |  |  |  | 161 | -3.33 | PY3_A−1 (ErbB4_PY3 peptide with alanine at position −1)
6 |  |  |  | 151 | -6.19 | PY3_A−2 (ErbB4_PY3 peptide with alanine at position −2)
7 |  |  |  | 135 | -4.78 | PY3_A+6 (ErbB4_PY3 peptide with alanine at position +6)
8 |  |  |  | 113 | -3.67 | PY3_A−3 (ErbB4_PY3 peptide with alanine at position −3)

From article PMC3906126
